These results are taken from publication PMC4361793.

Assay [1] addresses mussel foot protein-3 slow (mfp-3s), hydrophobic variant (Mytilus californianus). The assay can be described thus: surface forces apparatus.
Assay [2] has the same target. The assay can be described thus: QCM-D.

For the substance “mussel foot protein-3 slow (mfp-3s), hydrophobic variant (natural protein)”, in assay [1], the cohesive energy Wc (tc ~ 2 min) is 5.4 mJ/m^2.

In assay [2], “rat-tail tropocollagen type-1 (COL1A1) (from UniProt P02454 152-1207; P02466 86-1125) (natural protein)” gave an adsorbed hydrated mass after adding mfp-3s to TiO2 pre-exposed to COL1A1 of 209 ng/cm^2 and a total adsorbed hydrated mass of COL1A1/mfp-3s on TiO2 of 445 ng/cm^2. Further, the cohesive energy Wc of mfp-3s films with COL1A1 between them in assay [1] was 7.2 mJ/m^2.
